# Measurements taken from paper PMC4521999 (Nature, 2015).
# Substitutions are numbered along the chain they refer to. Numbers in names are those of the source.
# B1: GαCT peptide, a high affinity peptide variant of the C-terminus of G-transducin (Gt) (peptide)
# peptide: TGGRVLEDLKSCGLF
# B2: 35S-labelled 3A_arrestin (L374A/V375A/F376A, in vitro translated) (natural protein, mouse, UniProt P20443 1-403, looked up)
# chain: MAACGKTNKSHVIFKKVSRDKSVTIYLGKRDYVDHVSQVEPVDGVVLVDPELVKGKKVYVTLTCAFRYGQEDIDVMGLTFRRDLYFSRVQVYPPVGAMSVLTQLQESLLKKLGDNTYPFLLTFPDYLPCSVMLQPAPQDVGKSCGVDFEVKAFASDITDPEEDKIPKKSSVRLLIRKVQHAPPEMGPQPSAEASWQFFMSDKPLNLSVSLSKEIYFHGEPIPVTVTVTNNTDKVVKKIKVSVEQIANVVLYSSDYYVKPVASEETQEKVQPNSTLTKTLVLVPLLANNRERRGIALDGKIKHEDTNLASSTIIKEGIDRTVMGILVSYHIKVKLTVSGFLGELTSSEVATEVPFRLMHPQPEDPAKESVQDENAAAEEFARQNLKDTGENTEGKKDEDAGQDE
# modifications: 35S-methionine
# B3: untagged 3A_arrestin (residues 10–392) (domain or fragment, mouse, UniProt P20443 10-392, looked up)
# chain: SHVIFKKVSRDKSVTIYLGKRDYVDHVSQVEPVDGVVLVDPELVKGKKVYVTLTCAFRYGQEDIDVMGLTFRRDLYFSRVQVYPPVGAMSVLTQLQESLLKKLGDNTYPFLLTFPDYLPCSVMLQPAPQDVGKSCGVDFEVKAFASDITDPEEDKIPKKSSVRLLIRKVQHAPPEMGPQPSAEASWQFFMSDKPLNLSVSLSKEIYFHGEPIPVTVTVTNNTDKVVKKIKVSVEQIANVVLYSSDYYVKPVASEETQEKVQPNSTLTKTLVLVPLLANNRERRGIALDGKIKHEDTNLASSTIIKEGIDRTVMGILVSYHIKVKLTVSGFLGELTSSEVATEVPFRLMHPQPEDPAKESVQDENAAAEEFARQNLKDTGENTE
# B4: WT arrestin (10–392)-TEV protease (Tango construct) (domain or fragment, mouse, UniProt P20443 10-392, looked up)
# chain: B3 chain with A365L, A366V, A367F
# B5: 3A_arrestin (10–392)-TEV protease (Tango construct) (domain or fragment, mouse, UniProt P20443 10-392, looked up)
# chain: B3 chain
# Experiments:
# rhodopsin = rhodopsin (UniProt P02699); settings: cited from earlier work
# [1] = biological target: T1, His8-MBP-rhodopsin E113Q/M257Y (in N2C/N282C) (human, UniProt P08100 1-348, N2^NtermC | N282^ECL3C | E113^3.28Q | M257^6.40Y); experiment: AlphaScreen or HTRF
# [2] = biological target: T1, His8-MBP-rhodopsin E113Q/M257Y (in …); experiment: pull-down
# [3] = biological target: WT rhodopsin (1–321)-TEV site-tTA (Tango construct) (human, UniProt P08100 1-321, N2^NtermC | N282^ECL3C); experiment: Tango assay
# [4] = biological target: E113Q/M257Y rhodopsin (1–321)-TEV site-tTA (Tango construct) (human, UniProt P08100 1-321, N2^NtermC | N282^ECL3C | E113^3.28Q | M257^6.40Y); experiment: Tango assay
molecule,measurement,setting,value
arrestin (from UniProt P10523),Kd,rhodopsin,50 nM
B1,IC50,[1],700 nM
B2,"fold of the binding of WT arrestin to WT rhodopsin, with all-trans-retinal",[2],~60 fold
B3,IC50,[1],15 nM
B4,fold increase of binding with all-trans-retinal,[3],~3 fold
B5,fold increase of binding signal with all-trans-retinal,[4],~5 fold
